# According to article PMC8442604 (Frontiers in Immunology, 2021):
# B1: B38 (antibody, V domains shown)
# VH: EVQLVESGGGLVQPGGSLRLSCAASGFIVSSNYMSWVRQAPGKGLEWVSVIYSGGSTYYADSVKGRFTISRHNSKNTLYLQMNSLRAEDTAVYYCAREAYGMDVWGQGTTVTVSS
# VL: DIVMTQSPSFLSASVGDRVTITCRASQGISSYLAWYQQKPGKAPKLLIYAASTLQSGVPSRFSGSGSGTEFTLTISSLQPEDFATYYCQQLNSYPPYTFGQGTKLEIK
# B2: C105 (antibody, V domains shown)
# VH: QVQLVESGGGLIQPGGSLRLSCAASGFTVSSNYMSWVRQAPGKGLEWVSVIYSGGSTYYADSVKGRFTISRDNSKNTLYLQMNSLRAEDTAVYYCARGEGWELPYDYWGQGTLVTVSS
# VL: QSALTQPPSASGSPGQSVTISCTGTSSDVGGYKYVSWYQQHPGKAPKLMIYEVSKRPSGVPDRFSGSKSGNTASLTVSGLQAEDEADYYCSSYEGSNNFVVFGGGTKLTVL
# B3: CC12.3 (antibody, V domains shown)
# VH: QVQLVESGGGLIQPGGSLRLSCAASGFTVSSNYMSWVRQAPGKGLEWVSVIYSGGSTFYADSVKGRFTISRDNSKSTLYLQMNSLRVEDTAVYYCARDFGDFYFDYWGQGTLVTVSS
# VL: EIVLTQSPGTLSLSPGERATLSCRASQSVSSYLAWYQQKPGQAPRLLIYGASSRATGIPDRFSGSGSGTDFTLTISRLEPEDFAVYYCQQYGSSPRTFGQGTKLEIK
# B4: REGN10933 (antibody, V domains shown)
# VH: QVQLVESGGGLVKPGGSLRLSCAASGFTFSDYYMSWIRQAPGKGLEWVSYITYSGSTIYYADSVKGRFTISRDNAKSSLYLQMNSLRAEDTAVYYCARDRGTTMVPFDYWGQGTLVTVSS
# VL: DIQMTQSPSSLSASVGDRVTITCQASQDITNYLNWYQQKPGKAPKLLIYAASNLETGVPSRFSGSGSGTDFTFTISGLQPEDIATYYCQQYDNLPLTFGGGTKVEIK
# B5: REGN10987 (antibody, V domains shown)
# VH: QVQLVESGGGVVQPGRSLRLSCAASGFTFSNYAMYWVRQAPGKGLEWVAVISYDGSNKYYADSVKGRFTISRDNSKNTLYLQMNSLRTEDTAVYYCASGSDYGDYLLVYWGQGTLVTVSS
# VL: QSALTQPASVSGSPGQSITISCTGTSSDVGGYNYVSWYQQHPGKAPKLMIYDVSKRPSGVSNRFSGSKSGNTASLTISGLQSEDEADYYCNSLTSISTWVFGGGTKLTVL
# B6: EY6A (antibody, V domains shown)
# VH: EVQLVESGGGVVQPGRSLRLSCAASAFTFSSYDMHWVRQAPGKGLEWVAVISYDGSNKYYADSVKGRFTISRDNSKNTLYLQMNSLRAEDTAVYYCAKDGGKLWVYYFDYWGQGTLVTVSS
# VL: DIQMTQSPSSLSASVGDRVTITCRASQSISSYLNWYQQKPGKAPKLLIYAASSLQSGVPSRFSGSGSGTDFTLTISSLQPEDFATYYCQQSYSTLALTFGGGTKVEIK
# B7: 2-4 (antibody, V domains shown)
# VH: QVQLVQSGAEVKKPGASVKVSCKASGYTFTGYYMHWVRQAPGQGLEWMGWINPNSGGTNYTQMFQGRVTMTRDTSISTAYMEVSRLRSDDTAVYYCARDRSWAVVYYYMDVWGKGTTVTVSS
# VL: QSALTQPPSASGSPGQSVTISCTGTSSDVGGYNYVSWYQQHPGKAPKLMIYEVSKRPSGVPDRFSGSKSGNTASLTVSGLQAEDEADYYCSSYAGSNNLVFGGGTKLTVL
# B8: LCA60 (antibody, V domains shown)
# VH: EVQLLESGGGLVKPGGSLRLSCEASGLTFSNVWMSWVRQAPGKGLEWVGRIKRKSEGATTDYGAPVKGRFTLSRDDSKNTVYLQMNSLKIDDTAVYYCSTLTRGGDVWSSSYYFDYWGQGALVTVSS
# VL: QSALTQPASVSGSPGQSITISCTGTSSDVGTYDLVSWYQQHPGKSPKLMIYADIKRPSGVSHRFSGSKSGNTASLTISGLQSADEADYYCCLYAGSSTSVIFGGGTKVT
# notes: also called MERS nAb LCA60
# B9: 4A8 (antibody, V domains shown)
# VH: EVQLVESGAEVKKPGASVKVSCKVSGYTLTELSMHWVRQAPGKGLEWMGGFDPEDGETMYAQKFQGRVTMTEDTSTDTAYMELSSLRSEDTAVYYCATSTAVAGTPDLFDYYYGMDVWGQGTTVTVSS
# VL: EIVMTQSPLSSPVTLGQPASISCRSSQSLVHSDGNTYLSWLQQRPGQPPRLLIYKISNRFSGVPDRFSGSGAGTDFTLKISRVEAEDVGVYYCTQATQFPYTFGQGTKVDIK
# B10: CB6H-XG83L (antibody, V domains shown)
# VH: EVQLVESGGGLVQPGGSLRLSCAASGFTVSSNYMSWVRQAPGKGLEWVSVIYSGGSTFYADSVKGRFTISRDNSMNTLFLQMNSLRAEDTAVYYCARVLPMYGDYLDYWGQGTLVTVSS
# VL: QSVLTQPPSVSGAPGQRVTISCTGSSSNIGAGYDVHWYQQLPGTAPKLLIYGDSNRPSGVPDRFSGSKSGTSASLAITGLQAEDEADFYCQSYDSSLSTSIFGGGTKLTVL
# B11: CB6 (antibody, V domains shown)
# VH: B10 VH
# VL: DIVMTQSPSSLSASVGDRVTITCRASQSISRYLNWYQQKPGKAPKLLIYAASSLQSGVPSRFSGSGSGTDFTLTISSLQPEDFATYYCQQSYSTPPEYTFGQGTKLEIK
# Target: T1, SARS-CoV-2 RBD protein (321–591) (SARS-CoV-2, Wuhan-Hu-1 (MN908947), UniProt P0DTC2)
# Experiment: ELISA
# Conditions: one partner purified
row,Binder,binding result
1,B1,binds
2,B2,binds
3,B3,binds
4,B4,binds
5,B5,binds
6,B6,binds
7,B7,binds
8,B8,no binding
9,B9,no binding

# Target: T1, SARS-CoV-2 RBD protein (321–591)
# Experiment: cell-based or functional assay
# Conditions: not given
row,Binder,IC50 of neutralisation of authentic SARS-CoV-2 on Vero E6 cells (CPE assay) [µg/mL]
1,B10,1.1

# Target: T1, SARS-CoV-2 RBD protein (321–591)
# Experiment: SPR
# Conditions: both partners purified
row,Binder,Kd [nM]
1,B10,0.58
2,B11,43.8
